Assay results published in IntAct's records for PubMed 23956175.

B1: Protein disulfide isomerase Creld2 (Mus musculus), Q9CYA0 (parent)
chain: MHLLLAAAFGLLLLLPPPGAVASRKPTMCQRCRTLVDKFNQGMANTARKNFGGGNTAWEEKTLSKYEFSEIRLLEIMEGLCDSSDFECNQLLEQQEEQLEAWWQTLKKEHPNLFEWFCVHTLKACCLPGTYGPDCQECQGGSERPCSGNGYCSGDGSRQGDGSCQCHTGYKGPLCIDCTDGFFSLQRNETHSICSACDESCKTCSGPSNKDCIQCEVGWARVEDACVDVDECAAETSPCSDGQYCENVNGSYTCEDCDSTCVGCTGKGPANCKECIAGYTKESGQCTDIDECSLEEKACKRKNENCYNVPGSFVCVCPEGFEETEDACVQTAEGKVTEENPTQPPSREDL
partner: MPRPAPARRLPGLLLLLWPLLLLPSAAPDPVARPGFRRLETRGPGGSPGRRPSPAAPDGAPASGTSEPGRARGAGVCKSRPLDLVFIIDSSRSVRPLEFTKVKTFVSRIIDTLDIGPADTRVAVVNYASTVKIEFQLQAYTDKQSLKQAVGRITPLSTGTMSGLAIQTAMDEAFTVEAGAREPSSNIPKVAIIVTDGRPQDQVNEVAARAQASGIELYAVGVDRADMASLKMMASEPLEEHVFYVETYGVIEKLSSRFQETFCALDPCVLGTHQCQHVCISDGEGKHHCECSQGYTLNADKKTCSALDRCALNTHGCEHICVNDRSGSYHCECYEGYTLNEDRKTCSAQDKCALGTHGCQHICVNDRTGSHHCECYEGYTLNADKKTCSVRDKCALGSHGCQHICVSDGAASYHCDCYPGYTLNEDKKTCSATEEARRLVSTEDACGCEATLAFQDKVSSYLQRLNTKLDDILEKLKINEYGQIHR

Variants of: B1
Settings: with matn3_human MATN3, O15232

Variant | effect of a mutation on the interaction
C32A | causing an interaction
